The Kd is a measure of binding affinity in units of concentration. As a reminder, the EC50 is the concentration giving half of the maximal effect.

One assay deals with PAR polymer. Description: Competition binding of unlabeled PAR polymer against [32P]-labeled PAR polymer. On the procedure:
The affinity of Iduna and Iduna-YRAA for PAR binding was determined by a competition assay with increasing concentrations of unlabeled PAR polymer against 2.5 nM [^32P]-labeled PAR polymer (mean size of 40 ADP-ribose units) (FIG. 29). […] The PAR polymer synthesized by in vitro automodification of PARP-1 has a mean length of 40 ADP-ribose residues and accordingly the concentration of PAR is given as a function of polymer molecules with a mean size of 40 ADP-ribose units. These concentrations of PAR polymers are within the range of polymer concentrations found in intact cells during NMDA excitotoxicity and N-methyl-N-nitro-N-nitrosoguanidine (MNNG) toxicity. PAR polymer fails to bind to Iduna-YRAA (FIG. 29). […] The observed Kd is 10 times less than the PAR polymer concentration found after NMDA-induced excitotoxicity in cortical neurons.
Nitrocellulose PAR-binding Assay: Synthetic peptides or purified proteins were diluted in TBS-T buffer (1 μg/μl) and loaded onto a nitrocellulose membrane (0.05 μm) using a dot blot manifold system (Life Technologies). The membranes were washed once with TBS-T buffer, removed from the manifold and air dried. The membranes were then incubated in 10 ml of TBS-T buffer containing an indicated concentration of both [^32P]-labeled automodified PARP-1 and [^32P]-labeled PAR polymer for 3 h at room temperature with constant shaking. The membranes were washed with TBS-T buffer at 4° C. until no radioactivity could be detected in the waste. Finally, the membrane was air dried and subjected to autoradiography on Bio-Max MR (Kodak) films or analyzed by Cerenkov counting using an Instant Imager system (Perkin Elmer).

In the next assay the test system is cortical neurons. Briefly: Calcium imaging and mitochondrial Ca2+ uptake. The class given is cell-based, mouse. The procedure: Calcium Imaging: Neuronal cells were plated on 17 mm glass cover slips, pre-coated with poly-L-ornithine (0.1 mg/ml). On DIV 14, the cultures were loaded with calcium sensitive dye Fluo-5f (2.5 μM, dissolved in pleuronic acid/DMSO solution) for 45 min at 37° C. and thereafter placed on a thermostatically confocal microscopic stage (Carl Zeiss). HEPES balanced salt solution (HBSS: NaCl 137 mM, KCl 5 mM, HEPES 20 mM, glucose 10 mM, CaCl2 1.4 mM, NaHCO3 3 mM, Na2HPO4 0.6 mM, KH2PO4 0.4 mM, pH 7.4) was superfused to the cultures for 100 s to obtain a steady base-line. NMDA (500 μM for 5 min) was used to induce intracellular calcium influx. Florescence values were monitored at every 10 s and calculated using LSM 510 Meta software and represent the changes in cellular calcium.
Measurements of Mitochondrial Ca^2+-uptake Capacity: Extramitochondrial free Ca^2+ was monitored in the presence of isolated mitochondria or digitonin-permeabilized cells, using an indicator of extramitochondrial free Ca^2+ (Calcium green-5N, Invitrogen). […] Fluorescence was continuously monitored at an excitation/emission at 488/532 nm respectively. […] Ca^2+ uptake was monitored by addition of 50 μM CaCl2 to the assay medium using a Hamilton syringe.

The subject of assay [1] is MCF7 cells. Description: Alkaline comet assay after γ-irradiation. The class given is cell-based, human. The following applies: γ-irradiation 2 Gy, 15 min. The procedure: Comet assay. Single cell gel electrophoresis assay was performed by following the manufacturer's instructions. Briefly, established stable cell lines were irradiated (2 Gy) with a Gammacell irradiator and then further incubated for 15 min at 37° C. Cells were collected at 500×g at 4° C. and rinsed twice with ice cold PBS (Ca++ and Mg++ free). A total of 5×10^5 cells were counted and resuspended into PBS (Ca++ and Mg++ free) and then combined with LMAgarose (low melting agarose) at a ratio 1:10 (v/v). Each sample was spotted into CometSlide™ and lysed with buffer (supplied with CometAssay Kit, Trevigen) for 1 h at 4° C. After draining the excess lysis buffer, slides were immersed with alkaline unwinding solution (200 mM NaOH, pH>13, 1 mM EDTA) for 1 h at RT. To the single cell electrophoresis, each comet slide was placed in electrophoresis slide tray with 1 L of alkaline unwinding solution and applied to 21 Volts for 30 min for electrophoresis. After draining the excess electrophoresis buffer, slides were rinsed twice with dH2O and then fixed with 70% ethanol for 5 min. To facilitate single cell observation, slides were dried at 40° C. and stained with SYBR Green I (supplied with CometAssay Kit) for 5 min at 4° C. […] Fifty cells per slide were monitored and the DNA damage was calculated using comet tail length and head diameter parameters.

Assay [2] has as its system MCF7 cells. Description: Cell cycle analysis after γ-irradiation. The class given is cell-based, human. The following applies: γ-irradiation 2 Gy. The procedure: Cell cycle analysis. Studies were performed to evaluate the cell cycle response of each stable cell lines. Cells were plated onto 150 mm culture dishes and cultured for 24 h at 37° C. with fresh growth medium. Following replacement of growth medium, cells were irradiated at 2 Gy with a Gammacell irradiator. After 12 h, cells were washed once with PBS and incubated with PBS containing 0.2% EDTA for 5 min at 37° C., thereafter scraped with fresh growth medium and collected at 500×g at 4° C. Collected cells were washed once with ice cold PBS and then fixed with 70% ethanol. Cells were washed once with PBS containing 1% FBS and resuspended into propidium iodide (PI) staining buffer (PBS, pH 7.4, 50 μg/ml PI, 1% FBS, 100 μg/ml RNase) for 30 min at 37° C. Cells were monitored for DNA content by a flow cytometry (BD Biosciences) and then data were analyzed with FlowJo using Dean-Jett-Fox model for the quantification of each cell cycle phase.

B1: Iduna: novel NMDA-induced cell survival protein, PAR-dependent E3 ligase; 359 amino acids (protein)
chain: MEMAGCGEIDHSINMLPTNKKANESCSNTAPSLTVPECAICLQTCVHPVSLPCKHVFCYLCVKGASWLGKRCALCRQEIPEDFLDKPTLLSPEELKAASRGNGEYAWYYEGRNGWWQYDERTSRELEDAFSKGKKNTEMLIAGFLYVADLENMVQYRRNEHGRRRKIKRDIIDIPKKGVAGLRLDCDTNTVNLARESSADGADSGSAQTGASVQLAVPSSTRPLTSVDGQLTSPVTPSPDAGISLEDSFAHLQLSGDSIAERSHRGEGEEDHESPSSGRVPDTSVEETESDASSDSEDAPVVVAQHSLTQQRPLVPNGNQTVADQSDRSGTDRSVAGGGTMSVNVRSRRPDGQCTVIEV
In the case of B1, the “maximum binding capacity (Bmax)” value in the assay with PAR polymer (competitive binding curve) was 3.04 ± 0.16 µmol. The Kd at PAR polymer (homologous competitive binding curve, Cheng-Prusoff equation, read-out: dissociation constant (Kd)) is 12 nM. Further, the EC50 at PAR polymer (unlabeled PAR polymer against 2.5 nM [32P]-labeled PAR polymer, mean size 40 ADP-ribose units, read-out: EC50 of wild type Iduna for PAR polymer) was 14.5 ± 0.13 nM. In addition, in the assay on cortical neurons (Calcium green-5N), the mitochondrial calcium uptake result is “does not interfere with mitochondrial calcium uptake”. Besides, the NMDA-induced calcium influx entry with cortical neurons (fluo-5F, NMDA 500 μM 5 min) is reported as “does not interfere with NMDA-induced intercellular calcium influx”. The “comet head diameter and tail length” value in the assay on MCF7 cells [1] was “dramatically prevents the reduction in head diameter and increase in tail length”. In addition, in the assay on MCF7 cells [2], the “cell cycle arrest and cell survival” value was “rescues cells from G1 arrest in the cell cycle and promotes cell survival”.

Values taken from patent US9623039B2, “Treatment and prevention of pathological conditions using iduna related techniques and compositions” (VALTED, LLC, priority 2010, dated 2017).
